Target: T1, soluble mesothelin (human, UniProt Q13421)
T1 chain: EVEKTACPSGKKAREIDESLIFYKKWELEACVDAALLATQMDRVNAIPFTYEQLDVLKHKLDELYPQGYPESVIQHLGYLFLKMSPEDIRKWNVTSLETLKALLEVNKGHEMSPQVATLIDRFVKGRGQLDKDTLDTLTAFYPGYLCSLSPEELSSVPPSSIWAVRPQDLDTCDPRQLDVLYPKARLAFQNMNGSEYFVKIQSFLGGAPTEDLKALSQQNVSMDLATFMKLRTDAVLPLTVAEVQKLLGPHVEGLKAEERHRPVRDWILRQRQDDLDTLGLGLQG
Experiment: ELISA

- binding result: no binding
B1: Gly1-2-H4 (antibody, V domains shown)
VH: QVQLVQSGAEVKKPGSSVKVSCKSSGGTFSSDTINWVRQAPGQGLEWMGWINPNSGGTNYAQKFQGWVTMTRDTSISTAYMELSRLRSDDTAVYYCARESALGGSYPLSFWGQGTLVTVSS
VL: ETTLTQSPGTLSLSPGERATLSCRASQSVSSSYLAWYQQKPGQAPRLLIYGASSRATGIPDRFSGSGSGTDFTLTISRLEPEDSATYYCLQDDSYPLTFGQGTKVEIK
